The record followed here is the Immune Epitope Database (IEDB).

The first experiment concerns the target HLA-A*33:01. As to the kind of experiment: IEDB peptide-MHC binding, purified MHC/competitive/radioactivity; filed as Kd, often an IC50 or EC50 that approximates it; ≥ and ≤ were set here for values at or beyond the usual limits of such assays. The settings on record: source organism: Lassa virus GA391.
LMSIISTFH: the Kd (as a rule, a measure of binding affinity in units of concentration) is ≥ 77.7 µM.

The same experiment, now with this note: source organism: Lassa virus Josiah.
Take AMSCDFNGGK: the Kd is ≥ 24.2 µM.

The same experiment, now with this note: source organism: Mammarenavirus machupoense.
Consider SSFDYCGVNH, for which the Kd was 6.43 µM.

The experiment is the same for the next values; noted with them: source organism: SARS coronavirus Tor2.
Take ALSTNHGHK: the Kd is ≥ 46.5 µM.

On to WIMLLQFAY, for which the Kd was ≥ 77.7 µM.

For the sequence KTNCCRFQEK, the Kd is ≥ 37.7 µM.

On to IVFVCVEYY, for which the Kd came out at 0.844 µM.

Take GMSYYCKSHK: the Kd turned out to be 9.96 µM.

In the case of YFVCWHTHNY, the Kd was determined as 1.82 µM.

For KVKYLYFIK, the Kd worked out at 9.3 µM.

On to TQNVLYENQK, for which the Kd is ≥ 70 µM.

As to AIVCRFDTR, the Kd worked out at 0.329 µM.

On to ASLPYGANK, for which the Kd was ≥ 52.2 µM.

As for QQQGQTVTK, the Kd is ≥ 30.4 µM.

Regarding TMHANYIFWR, the Kd amounted to 0.121 µM.

Still in this experiment, the particulars now being: source organism: Vaccinia virus WR.
Take PSVNEYHMLK: the Kd amounted to 11.6 µM.

As to FSPENKAFK, the Kd is 3.92 µM.

As to ISSVQLSNNK, the Kd was determined as 3 µM.

As for VVMHINSPFK, the Kd was found to be 11.6 µM.

VSKHWELTNK: the Kd was 11.9 µM.

For QAELTSNCTR, the Kd was 0.818 µM.

For the sequence RIGTAATKR, the Kd was ≥ 77.7 µM.

With IMVASDVCKK, the Kd came out at 7.13 µM.

For FMTLVPVLEK, the Kd was determined as 0.02 µM.

CFPSTQRDY: the dissociation constant Kd is ≥ 77.7 µM.

For RIGTAATKRY, the Kd is ≥ 70 µM.

Consider LSKDKMDSFK, for which the Kd came out at 0.304 µM.

Turning to VLSAATETY, the Kd was ≥ 77.7 µM.

As to GQRCHFIKK, the dissociation constant Kd is 13.2 µM.

For NSNIIKNKK, the Kd worked out at 4.3 µM.

Turning to QLCYCPASKK, the Kd was ≥ 59.5 µM.

In the case of ISLNSMYTR, the Kd turned out to be 0.0856 µM.

For YSFKLILAEY, the Kd was found to be 7.96 µM.

Turning to ISEKETLNEY, the Kd was ≥ 55.6 µM.

In the case of AIEPSGNNY, the Kd is ≥ 77.7 µM.

For the sequence AARILSEKR, the dissociation constant Kd worked out at 1.07 µM.

Regarding QIDRLEDLSK, the Kd stood at 14.7 µM.

In another experiment the target is HLA-A*68:01. Described as above. Conditions: source organism: Lassa virus GA391.
Take LMSIISTFH: the Kd worked out at 3.16 µM.

The same experiment, now with this note: source organism: Lassa virus Josiah.
With AMSCDFNGGK, the Kd is ≥ 26.7 µM.

Still in this experiment, the particulars now being: source organism: Mammarenavirus machupoense.
Turning to SSFDYCGVNH, the Kd came to 0.492 µM.

The experiment is the same for the next values; noted with them: source organism: SARS coronavirus Tor2.
Consider ALSTNHGHK, for which the Kd is 3.05 µM.

On to WIMLLQFAY, for which the Kd is ≥ 23 µM.

KTNCCRFQEK: the Kd came to 4.22 µM.

As for IVFVCVEYY, the equilibrium dissociation constant (Kd) came out at 0.023 µM.

Take GMSYYCKSHK: the Kd amounted to 1.37 µM.

For YFVCWHTHNY, the Kd was 4.86 µM.

Regarding KVKYLYFIK, the Kd is 0.968 µM.

As to TQNVLYENQK, the Kd amounted to 3.09 µM.

Regarding AIVCRFDTR, the Kd was found to be 0.563 µM.

Take ASLPYGANK: the Kd came out at 16.5 µM.

On to QQQGQTVTK, for which the Kd was ≥ 50.5 µM.

Take TMHANYIFWR: the Kd is 0.0355 µM.

The same experiment, now with this note: source organism: Vaccinia virus WR.
With PSVNEYHMLK, the Kd was determined as 0.469 µM.

Take FSPENKAFK: the Kd was 0.133 µM.

Regarding ISSVQLSNNK, the Kd is 1.28 µM.

As for VVMHINSPFK, the Kd was 0.0374 µM.

Consider VSKHWELTNK, for which the Kd is 1.52 µM.

Consider QAELTSNCTR, for which the Kd turned out to be 0.24 µM.

Take RIGTAATKR: the Kd came to 0.325 µM.

Consider IMVASDVCKK, for which the Kd was 0.0744 µM.

As for FMTLVPVLEK, the Kd was 0.002 µM.

Take CFPSTQRDY: the Kd was ≥ 58.4 µM.

RIGTAATKRY: the Kd was ≥ 59.6 µM.

For the sequence LSKDKMDSFK, the Kd was 0.00146 µM.

With VLSAATETY, the Kd came out at 1.47 µM.

For the sequence GQRCHFIKK, the dissociation constant (Kd) is ≥ 25 µM.

With NSNIIKNKK, the Kd turned out to be 0.241 µM.

In the case of QLCYCPASKK, the Kd stood at 0.468 µM.

Take ISLNSMYTR: the Kd is 0.0133 µM.

As to YSFKLILAEY, the Kd worked out at 3.67 µM.

As to ISEKETLNEY, the Kd is ≥ 35 µM.

As for AIEPSGNNY, the Kd was ≥ 77.7 µM.

With AARILSEKR, the Kd came to 0.852 µM.

On to QIDRLEDLSK, for which the Kd turned out to be 2.31 µM.

The target in the next experiment is HLA-A*03:01. The description is as above. Conditions: source organism: Lassa virus GA391.
LMSIISTFH: the Kd is 2.23 µM.

The experiment is the same for the next values; noted with them: source organism: Lassa virus Josiah.
For AMSCDFNGGK, the Kd is 2 µM.

The experiment is the same for the next values; noted with them: source organism: Mammarenavirus machupoense.
For the sequence SSFDYCGVNH, the Kd worked out at 8.19 µM.

Still in this experiment, the particulars now being: source organism: SARS coronavirus Tor2.
For ALSTNHGHK, the Kd came to 0.03 µM.

On to WIMLLQFAY, for which the Kd came to 4.09 µM.

KTNCCRFQEK: the Kd was found to be 0.0383 µM.

With IVFVCVEYY, the Kd was 0.0497 µM.

As for GMSYYCKSHK, the Kd was determined as 0.02 µM.

In the case of YFVCWHTHNY, the Kd was 1.52 µM.

Regarding KVKYLYFIK, the Kd is 0.113 µM.

Take TQNVLYENQK: the Kd was ≥ 29.2 µM.

With AIVCRFDTR, the Kd came out at 4.17 µM.

On to ASLPYGANK, for which the Kd stood at 0.177 µM.

As for QQQGQTVTK, the Kd is 16.6 µM.

Regarding TMHANYIFWR, the Kd was 1.26 µM.

Still in this experiment, the particulars now being: source organism: Vaccinia virus WR.
On to PSVNEYHMLK, for which the Kd worked out at 0.0102 µM.

With FSPENKAFK, the Kd amounted to 6.25 µM.

As for ISSVQLSNNK, the Kd was 0.943 µM.
